According to US20220305128:

System: NF-kB (endogenous, A549 cells) (Homo sapiens)
Assay: cell_activity
Settings: A549 MTT, 1 pmol RNA transfected; 89% day 1; indirect readout

Sequence: AAAAAAAAAAGAUCUUGAAACUGUUUUAAGGUUGGCCGAUCUUAAAAAA [NF-kB aptamer, circular RNA]
- activity (% viability day 2): 86
